The text below walks through data of patent US20250333503A1 (COMPUGEN, published 2025).

In general, Kd refers to the constant that tells how readily two partners part at equilibrium. A high value points to weaker binding.

The target in experiment [1] is T1, human PVRIG (Poliovirus Receptor Related Immunoglobulin Domain Containing Protein) (human, UniProt Q6DKI7 41-326).
T1 construct: whole, on cells; on HEK293 over-expressing cells (some pools flag-tagged), Jurkat, CA46 or primary T cells; also called hPVRIG; C7orf15
T1 sequence (looked up): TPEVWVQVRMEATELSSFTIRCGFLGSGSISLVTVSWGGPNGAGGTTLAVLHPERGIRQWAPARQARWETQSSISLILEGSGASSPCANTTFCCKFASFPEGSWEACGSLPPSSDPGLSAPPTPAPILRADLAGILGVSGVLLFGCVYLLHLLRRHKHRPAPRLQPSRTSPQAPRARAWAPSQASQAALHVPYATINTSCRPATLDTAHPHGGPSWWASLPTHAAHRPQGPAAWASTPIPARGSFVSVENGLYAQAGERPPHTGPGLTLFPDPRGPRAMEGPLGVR
In words: flow cytometry equilibrium titration on HEK 293 cells expressing human PVRIG, 1:1 fit. (In general: Flow cytometry measures light scatter and fluorescence of single cells or particles in a stream.)

For experiment [2], the target named is T1, human PVRIG (Poliovirus Receptor …). Put plainly: FACS on Jurkat cells transfected with scrambled siRNA.
The target is the same in experiment [3]. In words: FACS on Jurkat cells after PVRIG siRNA knock down.
Experiment [4] has as its target T2, mouse PVRIG on HEK293 over-expressing cells (mouse).
T2 construct: whole, on cells; also called HEK293 OX mouse PVRIG; mouse PVRIG-FLAG
In words: FACS, 60 µg/ml on HEK293 OX mouse PVRIG; one of two sources.

B1: CPA.7.021 IgG conjugated with Alexa 647 (antibody, V domains shown)
VH: EVQLVESGGGVVKPGGSLRLSCAASGFTFGTSSMNWVRQAPGKGLEWVAVISFDGTEIHYADSVKGRFTISRDNSKSTVFLQMNSLRPDDTALYYCAKGSGNIYFYSGMDVWGQGTTVTVSS
VL: DIQMTQSPSTLSASVGDRVTITCRAGQSISGWLAWFQQKPGKAPNLLIYETSTLESGVPSRFSGSGSGTEYTLTISSLQPDDFATYYCQQYYSYPLTFGQGTKVEIK
Regarding B1, binding in experiment [1] was put at a Kd of 2.5 nM. The “fold change (anti PVRIG vs isotype control)” value was 15.3 fold in experiment [2] and 2.8 fold in experiment [3].

B2: mouse PVRL2-his (ligand, UniProt P32507 32-351, looked up)
chain: QDVRVRVLPEVRGRLGGTVELPCHLLPPTTERVSQVTWQRLDGTVVAAFHPSFGVDFPNSQFSKDRLSFVRARPETNADLRDATLAFRGLRVEDEGNYTCEFATFPNGTRRGVTWLRVIAQPENHAEAQEVTIGPQSVAVARCVSTGGRPPARITWISSLGGEAKDTQEPGIQAGTVTIISRYSLVPVGRADGVKVTCRVEHESFEEPILLPVTLSVRYPPEVSISGYDDNWYLGRSEAILTCDVRSNPEPTDYDWSTTSGVFPASAVAQGSQLLVHSVDRMVNTTFICTATNAVGTGRAEQVILVRESPSTAGAGATGG
notes: also called His-tagged PVRL2; his-tagged mouse PVLR2
As for B2, the “fold binding vs empty vector cells” value in experiment [4] worked out at 2 fold.
